The target of series [1] is truncated Pex5 containing a single Wxxx(F/Y) motif (residues 314-666; Pex5TPR) (Trypanosoma cruzi) (UniProt Q4DPQ9). Description: ITC. On the technique in general: ITC needs no label: the signal is the heat of the interaction.
Series [2] has as its target Pex5 Y358A mutant (Pex5TPR) (Trypanosoma cruzi) (UniProt Q4DPQ9). The series is described as follows: ITC.
Series [3] deals with Pex5TPR with a GSGS-spacer between the TPR domain and the Wxxx(F/Y) motif (Trypanosoma cruzi) (UniProt Q4DPQ9). The series is described as follows: ITC.
Series [4] deals with glycosomal malate dehydrogenase (MDH, residues 1-323) of Trypanosoma cruzi (Trypanosoma cruzi) (UniProt Q4DRD8). The series is described as follows: ITC.
The target in series [5] is MDH GSGS-linker mutant (GSGS introduced between PTS1 and MDH) (Trypanosoma cruzi). Description: ITC.
Series [6] concerns the target MDH with the 62-70 loop replaced with GS-linker (Trypanosoma cruzi). The series is described as follows: ITC.
In series [7] the target is Pex5 mutant with a partial deletion of the 457-489 loop (Pex5 Δ470-480) (Trypanosoma cruzi) (UniProt Q4DPQ9). Description: ITC.
The series “cryo-EM structure” concerns the molecule itself. Description: cryo-EM structure.

With Pex14NTD(A48F) (domain or fragment), the fold decrease in affinity against wild type Pex14NTD in series [1] is 2 fold. Usually Kd stands for the free concentration of one partner at which half of the binding sites on the other are occupied at equilibrium, for simple one-to-one binding. A low value points to tighter binding. As to “N-terminal domain of Pex14 (Pex14NTD; residues 21-85) of Trypanosoma cruzi (domain or fragment)”, the figures for the fold decrease in affinity against wild type Pex5 in series [2] and in series [3] were 1.5 fold and 3.5 fold, respectively. This molecule also displayed a Kd in series [1] of 53 nM. As to “Pex5 P490R mutant (from UniProt Q4DPQ9 316-668) (domain or fragment)”, the fold decrease in affinity against wild type Pex5 in series [4] is over 3 fold. Regarding “truncated Pex5 containing a single Wxxx(F/Y) motif (residues 314-666; Pex5TPR) (from UniProt Q4DPQ9 316-668) (domain or fragment)”, in series [4], the Kd was determined as 435 nM. In series [5], this molecule came in with a fold increase in affinity against wild type MDH of 4 fold. This molecule had a fold decrease in affinity against wild type MDH in series [6] of 2.5 fold. Molecule H-ARSKL-OH [short peptide encompassing PTS1 of MDH (residues 319-ARSKL-323)] returned a fold decrease in affinity against wild type Pex5 in series [7] of 3 fold.

B1: glycosomal malate dehydrogenase (MDH, residues 1-323) of Trypanosoma cruzi (enzyme, UniProt Q4DRD8 1-323, looked up)
chain: MVNVAVIGAAGGIGQSLSLLLLRELPFGSTLSLYDVVGAPGVAADLSHIDRAGITVKHAAGKLPPVPRDPALTELAEGVDVFVIVAGVPRKPGMTRDDLFNVNAGIVMDLVLTCASVSPNACFCIVTNPVNSTTPIAAQTLRKIGVYNKNKLLGVSLLDGLRATRFINNARHPLVVPYVPVVGGHSDVTIVPLYSQIPGPLPDESTLKEIRKRVQVAGTEVVKAKAGRGSATLSMAEAGARFTMHVVKALMGLDTPMVYAYVDTDGEHECPFLAMPVVLGKNGIERRLPIGPITTVEKEMLEEAVGVVKKNIAKGETFARSKL
The term stoichiometry N denotes the number of molecules, sites or subunits per partner or assembly. Regarding B1, the “stoichiometry N” value in “cryo-EM structure” is 4.
